Results from patent US20100190693.

How the values were obtained:
[1] = target: GST-TORC2 (aa 161-181) Ser171Ala, Q53ET0
[2] = target: T1, GST-TORC2 (aa 161-181), wild-type, Q53ET0 (not fully specified)
T1 chain: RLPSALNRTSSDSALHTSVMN

Chain of GST-TORC2 (aa 161-181) Ser171Ala, Q53ET0 (Q53ET0 whole entry S171A, looked up, the tested form may be a part): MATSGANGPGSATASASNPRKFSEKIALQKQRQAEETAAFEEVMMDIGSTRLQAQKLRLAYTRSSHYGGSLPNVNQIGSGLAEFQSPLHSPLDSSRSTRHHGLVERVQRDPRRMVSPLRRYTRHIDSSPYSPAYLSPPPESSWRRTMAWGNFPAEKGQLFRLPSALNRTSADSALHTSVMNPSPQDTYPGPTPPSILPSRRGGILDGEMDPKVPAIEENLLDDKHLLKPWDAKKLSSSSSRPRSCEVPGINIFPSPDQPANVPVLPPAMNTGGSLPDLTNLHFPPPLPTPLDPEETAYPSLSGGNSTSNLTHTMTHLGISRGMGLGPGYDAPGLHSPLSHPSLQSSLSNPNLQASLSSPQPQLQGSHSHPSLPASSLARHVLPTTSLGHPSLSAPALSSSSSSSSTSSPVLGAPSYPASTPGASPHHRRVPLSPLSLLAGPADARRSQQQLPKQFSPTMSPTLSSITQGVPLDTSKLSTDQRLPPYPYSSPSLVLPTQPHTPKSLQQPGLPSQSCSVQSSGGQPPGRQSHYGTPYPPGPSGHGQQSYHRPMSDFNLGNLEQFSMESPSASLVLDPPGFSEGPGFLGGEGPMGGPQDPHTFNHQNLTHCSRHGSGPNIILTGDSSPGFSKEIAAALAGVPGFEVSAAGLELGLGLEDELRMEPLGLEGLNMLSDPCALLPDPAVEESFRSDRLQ

B1: Salt Inducible Kinase 2 (SIK2) (protein)
chain: MVMADGPRHLQRGPVRVGFYDIEGTLGKGNFAVVKLGRHRITKTEVAIKIIDKSQLDAVNLEKIYREVQIMKMLDHPHIIKLYQVMETKSMLYLVTEYAKNGEIFDYLANHGRLNESEARRKFWQILSAVDYCHGRKIVHRDLKAENLLLDNNMNIKIADFGFGNFFKSGELLATWCGSPPYAAPEVFEGQQYEGPQLDIWSMGVVLYVLVCGALPFDGPTLPILRQRVLEGRFRIPYFMSEDCEHLIRRMLVLDPSKRLTIAQIKEHKWMLIEVPVQRPVLYPQEQENEPSIGEFNEQVLRLMHSLGIDQQKTIESLQNKSYNHFAAIYFLLVERLKSHRSSFPVEQRLDGRQRRPSTIAEQTVAKAQTVGLPVTMHSPNMRLLRSALLPQASNVEAFSFPASGCQAEAAFMEEECVDTPKVNGCLLDPVPPVLVRKGCQSLPSNMMETSIDEGLETEGEAEEDPAHAFEAFQSTRSGQRRHTLSEVTNQLVVMPGAGKIFSMNDSPSLDSVDSEYDMGSVQRDLNFLEDNPSLKDIMLANQPSPRMTSPFISLRPTNPAMQALSSQKREVHNRSPVSFREGRRASDTSLTQGIVAFRQHLQNLARTKGILELNKVQLLYEQIGPEADPNLAPAAPQLQDLASSCPQEEVSQQQESVSTLPASVHPQLSPRQSLETQYLQHRLQKPSLLSKAQNTCQLYCKEPPRSLEQQLQEHRLQQKRLFLQKQSQLQAYFNQMQIAESSYPQPSQQLPLPRQETPPPSQQAPPFSLTQPLSPVLEPSSEQMQYSPFLSQYQEMQLQPLPSTSGPRAAPPLPTQLQQQQPPPPPPPPPPRQPGAAPAPLQFSYQTCELPSAASPAPDYPTPCQYPVDGAQQSDLTGPDCPRSPGLQEAPSSYDPLALSELPGLFDCEMLDAVDPQHNGYVLVN
[1]
  in vitro kinase assay, 32P-labeling: SIK2 was found to phosphorylate wild-type but not Ser171Ala mutant TORC2 in vitro
[2]
  in vitro kinase assay, 32P-labeling: SIK2 was found to phosphorylate wild-type but not Ser171Ala mutant TORC2 in vitro
